Results: patent US20250262210A1 (TRUSTEES OF COLUMBIA UNIVERSITY IN THE CITY OF NEW YORK, published 2025)

Tests used:
Experiment in all cases: IP/MS, LZTR1 wild type-FLAG, U87
ARHGEF40 = ARHGEF40 (human, UniProt Q8TER5 1-1519, limits assumed)
Summary of the method: (§1)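 Read-out: spectral counts from LC-MS/MS (Orbitrap Fusion) after MaxQuant identification. Variable modifications were Met oxidation, protein N-terminal acetylation and N/Q deamidation.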

DIP2B = DIP2B (human, UniProt Q9P265 1-1576)
Summary of the method: as §1

SMPD4 = biological target: T1, SMPD4 (human, UniProt Q9NXE4 1-866, limits assumed)
T1 sequence (looked up): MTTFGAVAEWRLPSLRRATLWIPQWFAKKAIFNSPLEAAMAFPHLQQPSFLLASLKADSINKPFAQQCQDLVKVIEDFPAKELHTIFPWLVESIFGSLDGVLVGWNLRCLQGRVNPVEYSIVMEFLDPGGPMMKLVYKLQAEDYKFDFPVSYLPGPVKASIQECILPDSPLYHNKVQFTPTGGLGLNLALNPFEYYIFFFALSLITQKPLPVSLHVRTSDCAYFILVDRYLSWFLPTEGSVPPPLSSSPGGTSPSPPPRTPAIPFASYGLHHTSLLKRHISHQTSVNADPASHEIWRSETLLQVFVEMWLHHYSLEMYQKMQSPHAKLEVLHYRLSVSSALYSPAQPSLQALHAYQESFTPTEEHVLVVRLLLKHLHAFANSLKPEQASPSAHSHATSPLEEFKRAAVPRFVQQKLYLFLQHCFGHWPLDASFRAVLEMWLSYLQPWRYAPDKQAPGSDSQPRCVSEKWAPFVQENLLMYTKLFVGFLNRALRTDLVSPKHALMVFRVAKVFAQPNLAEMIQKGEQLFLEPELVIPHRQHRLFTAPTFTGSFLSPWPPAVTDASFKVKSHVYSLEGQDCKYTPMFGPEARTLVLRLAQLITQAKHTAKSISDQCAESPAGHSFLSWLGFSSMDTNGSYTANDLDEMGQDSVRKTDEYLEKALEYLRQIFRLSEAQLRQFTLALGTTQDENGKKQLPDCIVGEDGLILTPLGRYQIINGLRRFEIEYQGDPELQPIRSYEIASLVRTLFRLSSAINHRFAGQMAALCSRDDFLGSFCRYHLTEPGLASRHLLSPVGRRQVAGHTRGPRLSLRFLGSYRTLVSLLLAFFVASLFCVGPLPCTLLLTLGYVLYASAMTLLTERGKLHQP
Summary of the method: as §1

MAP4K4 = MAP4K4 (human, UniProt O95819 2-1239, limits assumed)
Summary of the method: as §1

INTS1 = INTS1 (human, UniProt Q8N201 1-2190)
Summary of the method: as §1

ANKRD52 = biological target: T2, ANKRD52 (human, UniProt Q8NB46 1-1076)
T2 sequence (looked up): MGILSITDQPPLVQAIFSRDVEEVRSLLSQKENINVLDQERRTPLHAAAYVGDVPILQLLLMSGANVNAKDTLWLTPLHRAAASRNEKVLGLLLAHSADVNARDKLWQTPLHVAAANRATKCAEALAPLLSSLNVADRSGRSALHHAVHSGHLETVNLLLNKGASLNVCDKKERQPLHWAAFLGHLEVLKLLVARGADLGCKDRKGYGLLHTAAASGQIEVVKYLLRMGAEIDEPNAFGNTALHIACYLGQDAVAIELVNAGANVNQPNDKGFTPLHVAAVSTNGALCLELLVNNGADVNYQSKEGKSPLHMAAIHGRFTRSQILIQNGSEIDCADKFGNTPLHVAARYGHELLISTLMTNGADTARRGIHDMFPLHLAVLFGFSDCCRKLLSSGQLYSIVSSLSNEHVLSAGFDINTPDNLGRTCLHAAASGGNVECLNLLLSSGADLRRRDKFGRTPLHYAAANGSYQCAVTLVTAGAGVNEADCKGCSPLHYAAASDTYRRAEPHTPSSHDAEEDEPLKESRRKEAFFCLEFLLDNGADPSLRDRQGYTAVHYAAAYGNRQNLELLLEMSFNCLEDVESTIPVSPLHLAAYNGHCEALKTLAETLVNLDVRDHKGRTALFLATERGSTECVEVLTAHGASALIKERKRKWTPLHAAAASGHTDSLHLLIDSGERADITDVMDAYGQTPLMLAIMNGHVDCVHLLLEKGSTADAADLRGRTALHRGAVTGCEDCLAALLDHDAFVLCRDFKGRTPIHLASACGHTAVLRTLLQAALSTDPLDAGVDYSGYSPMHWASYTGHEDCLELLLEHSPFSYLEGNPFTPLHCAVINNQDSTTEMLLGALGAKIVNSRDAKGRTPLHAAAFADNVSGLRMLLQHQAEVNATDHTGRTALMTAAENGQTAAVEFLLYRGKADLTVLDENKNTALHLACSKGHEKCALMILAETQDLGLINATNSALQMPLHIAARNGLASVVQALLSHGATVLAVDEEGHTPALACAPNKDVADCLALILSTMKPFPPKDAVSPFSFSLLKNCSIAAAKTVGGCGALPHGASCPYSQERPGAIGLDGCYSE
Summary of the method: as §1

Measured: binding result

Sequence of MAP4K4 (O95819 2-1239 limits assumed): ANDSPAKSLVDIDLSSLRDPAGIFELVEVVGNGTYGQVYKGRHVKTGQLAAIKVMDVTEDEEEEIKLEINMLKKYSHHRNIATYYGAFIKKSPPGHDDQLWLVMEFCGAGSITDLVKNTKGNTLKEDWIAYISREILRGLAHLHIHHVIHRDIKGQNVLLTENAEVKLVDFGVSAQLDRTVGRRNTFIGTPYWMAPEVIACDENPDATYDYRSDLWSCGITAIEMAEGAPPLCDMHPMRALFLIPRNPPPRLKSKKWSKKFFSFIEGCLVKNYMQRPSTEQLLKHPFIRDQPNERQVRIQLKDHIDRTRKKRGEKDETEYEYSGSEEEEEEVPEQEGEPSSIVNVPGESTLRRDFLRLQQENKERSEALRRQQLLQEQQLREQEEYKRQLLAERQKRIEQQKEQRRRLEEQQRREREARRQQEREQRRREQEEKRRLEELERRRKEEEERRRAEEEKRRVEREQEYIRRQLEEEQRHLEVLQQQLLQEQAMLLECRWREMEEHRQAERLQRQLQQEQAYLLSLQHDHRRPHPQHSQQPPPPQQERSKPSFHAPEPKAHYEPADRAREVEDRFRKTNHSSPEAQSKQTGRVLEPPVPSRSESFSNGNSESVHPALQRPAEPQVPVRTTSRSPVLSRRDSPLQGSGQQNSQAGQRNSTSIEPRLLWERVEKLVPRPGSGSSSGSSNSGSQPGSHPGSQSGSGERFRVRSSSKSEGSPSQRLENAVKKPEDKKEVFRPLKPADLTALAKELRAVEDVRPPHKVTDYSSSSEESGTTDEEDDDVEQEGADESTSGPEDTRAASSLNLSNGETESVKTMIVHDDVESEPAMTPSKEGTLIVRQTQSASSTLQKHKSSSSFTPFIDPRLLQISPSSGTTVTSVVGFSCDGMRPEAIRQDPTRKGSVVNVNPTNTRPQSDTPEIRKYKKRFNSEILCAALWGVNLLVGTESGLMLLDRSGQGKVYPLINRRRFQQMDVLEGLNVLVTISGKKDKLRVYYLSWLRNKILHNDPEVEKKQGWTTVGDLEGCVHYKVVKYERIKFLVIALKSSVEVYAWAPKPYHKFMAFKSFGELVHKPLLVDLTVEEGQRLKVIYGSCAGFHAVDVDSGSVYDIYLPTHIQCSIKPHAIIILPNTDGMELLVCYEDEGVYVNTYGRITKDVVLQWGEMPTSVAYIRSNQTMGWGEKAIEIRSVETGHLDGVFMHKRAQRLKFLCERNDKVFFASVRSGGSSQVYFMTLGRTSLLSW
Sequence of INTS1 (Q8N201 whole entry): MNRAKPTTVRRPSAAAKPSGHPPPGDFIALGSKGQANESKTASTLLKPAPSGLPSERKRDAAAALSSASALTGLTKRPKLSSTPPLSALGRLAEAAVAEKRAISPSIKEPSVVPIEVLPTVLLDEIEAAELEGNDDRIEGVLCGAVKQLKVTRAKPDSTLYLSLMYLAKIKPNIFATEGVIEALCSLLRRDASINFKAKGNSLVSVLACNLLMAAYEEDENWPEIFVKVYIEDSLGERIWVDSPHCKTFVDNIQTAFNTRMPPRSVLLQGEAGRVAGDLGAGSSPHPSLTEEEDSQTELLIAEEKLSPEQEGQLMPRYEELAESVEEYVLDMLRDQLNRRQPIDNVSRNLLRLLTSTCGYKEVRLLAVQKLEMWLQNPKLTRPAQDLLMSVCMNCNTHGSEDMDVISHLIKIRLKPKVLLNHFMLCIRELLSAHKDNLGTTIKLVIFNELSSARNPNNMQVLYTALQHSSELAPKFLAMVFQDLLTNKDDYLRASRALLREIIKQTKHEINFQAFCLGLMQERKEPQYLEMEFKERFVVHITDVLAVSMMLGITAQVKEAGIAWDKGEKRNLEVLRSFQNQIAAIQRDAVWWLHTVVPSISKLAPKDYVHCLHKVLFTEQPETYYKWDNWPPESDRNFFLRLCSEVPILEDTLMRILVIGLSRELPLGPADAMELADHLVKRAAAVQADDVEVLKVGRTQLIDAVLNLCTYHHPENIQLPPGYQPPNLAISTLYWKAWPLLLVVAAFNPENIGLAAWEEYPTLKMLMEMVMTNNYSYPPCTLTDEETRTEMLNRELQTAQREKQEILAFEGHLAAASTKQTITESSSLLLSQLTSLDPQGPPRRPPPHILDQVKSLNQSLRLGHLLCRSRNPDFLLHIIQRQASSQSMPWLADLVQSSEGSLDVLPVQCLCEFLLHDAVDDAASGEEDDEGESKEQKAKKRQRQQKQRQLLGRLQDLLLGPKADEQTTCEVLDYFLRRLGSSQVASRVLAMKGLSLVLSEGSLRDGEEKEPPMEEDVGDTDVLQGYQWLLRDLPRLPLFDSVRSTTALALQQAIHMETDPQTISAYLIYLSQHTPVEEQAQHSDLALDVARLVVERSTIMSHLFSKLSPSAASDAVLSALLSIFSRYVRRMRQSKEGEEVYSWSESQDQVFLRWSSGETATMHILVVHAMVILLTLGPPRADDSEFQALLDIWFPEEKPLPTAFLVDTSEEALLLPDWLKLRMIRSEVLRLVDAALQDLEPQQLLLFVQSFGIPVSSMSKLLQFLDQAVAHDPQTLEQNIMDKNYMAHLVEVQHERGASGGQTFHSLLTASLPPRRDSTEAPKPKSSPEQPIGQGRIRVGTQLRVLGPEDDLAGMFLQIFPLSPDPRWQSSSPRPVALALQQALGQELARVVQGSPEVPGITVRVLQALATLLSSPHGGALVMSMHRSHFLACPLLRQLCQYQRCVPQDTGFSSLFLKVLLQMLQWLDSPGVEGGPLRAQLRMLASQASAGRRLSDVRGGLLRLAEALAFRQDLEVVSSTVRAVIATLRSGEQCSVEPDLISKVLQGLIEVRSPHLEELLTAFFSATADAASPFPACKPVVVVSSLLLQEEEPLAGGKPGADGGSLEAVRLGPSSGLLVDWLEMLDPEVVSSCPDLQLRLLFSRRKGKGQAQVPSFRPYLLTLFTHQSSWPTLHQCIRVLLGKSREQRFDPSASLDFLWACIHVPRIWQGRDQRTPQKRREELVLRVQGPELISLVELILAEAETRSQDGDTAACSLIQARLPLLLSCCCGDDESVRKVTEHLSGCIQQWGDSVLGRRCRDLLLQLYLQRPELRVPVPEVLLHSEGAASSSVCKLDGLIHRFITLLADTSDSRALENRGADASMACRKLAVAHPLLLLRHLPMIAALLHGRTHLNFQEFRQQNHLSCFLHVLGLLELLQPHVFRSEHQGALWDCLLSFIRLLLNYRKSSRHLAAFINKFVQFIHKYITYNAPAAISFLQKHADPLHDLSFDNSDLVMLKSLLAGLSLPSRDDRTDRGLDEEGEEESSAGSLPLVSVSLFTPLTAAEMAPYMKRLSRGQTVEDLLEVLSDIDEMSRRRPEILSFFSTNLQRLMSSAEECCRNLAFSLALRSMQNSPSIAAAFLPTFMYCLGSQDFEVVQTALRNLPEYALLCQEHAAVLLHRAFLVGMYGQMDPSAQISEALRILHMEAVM
Sequence of ARHGEF40 (Q8TER5 whole entry, the tested form may be a part): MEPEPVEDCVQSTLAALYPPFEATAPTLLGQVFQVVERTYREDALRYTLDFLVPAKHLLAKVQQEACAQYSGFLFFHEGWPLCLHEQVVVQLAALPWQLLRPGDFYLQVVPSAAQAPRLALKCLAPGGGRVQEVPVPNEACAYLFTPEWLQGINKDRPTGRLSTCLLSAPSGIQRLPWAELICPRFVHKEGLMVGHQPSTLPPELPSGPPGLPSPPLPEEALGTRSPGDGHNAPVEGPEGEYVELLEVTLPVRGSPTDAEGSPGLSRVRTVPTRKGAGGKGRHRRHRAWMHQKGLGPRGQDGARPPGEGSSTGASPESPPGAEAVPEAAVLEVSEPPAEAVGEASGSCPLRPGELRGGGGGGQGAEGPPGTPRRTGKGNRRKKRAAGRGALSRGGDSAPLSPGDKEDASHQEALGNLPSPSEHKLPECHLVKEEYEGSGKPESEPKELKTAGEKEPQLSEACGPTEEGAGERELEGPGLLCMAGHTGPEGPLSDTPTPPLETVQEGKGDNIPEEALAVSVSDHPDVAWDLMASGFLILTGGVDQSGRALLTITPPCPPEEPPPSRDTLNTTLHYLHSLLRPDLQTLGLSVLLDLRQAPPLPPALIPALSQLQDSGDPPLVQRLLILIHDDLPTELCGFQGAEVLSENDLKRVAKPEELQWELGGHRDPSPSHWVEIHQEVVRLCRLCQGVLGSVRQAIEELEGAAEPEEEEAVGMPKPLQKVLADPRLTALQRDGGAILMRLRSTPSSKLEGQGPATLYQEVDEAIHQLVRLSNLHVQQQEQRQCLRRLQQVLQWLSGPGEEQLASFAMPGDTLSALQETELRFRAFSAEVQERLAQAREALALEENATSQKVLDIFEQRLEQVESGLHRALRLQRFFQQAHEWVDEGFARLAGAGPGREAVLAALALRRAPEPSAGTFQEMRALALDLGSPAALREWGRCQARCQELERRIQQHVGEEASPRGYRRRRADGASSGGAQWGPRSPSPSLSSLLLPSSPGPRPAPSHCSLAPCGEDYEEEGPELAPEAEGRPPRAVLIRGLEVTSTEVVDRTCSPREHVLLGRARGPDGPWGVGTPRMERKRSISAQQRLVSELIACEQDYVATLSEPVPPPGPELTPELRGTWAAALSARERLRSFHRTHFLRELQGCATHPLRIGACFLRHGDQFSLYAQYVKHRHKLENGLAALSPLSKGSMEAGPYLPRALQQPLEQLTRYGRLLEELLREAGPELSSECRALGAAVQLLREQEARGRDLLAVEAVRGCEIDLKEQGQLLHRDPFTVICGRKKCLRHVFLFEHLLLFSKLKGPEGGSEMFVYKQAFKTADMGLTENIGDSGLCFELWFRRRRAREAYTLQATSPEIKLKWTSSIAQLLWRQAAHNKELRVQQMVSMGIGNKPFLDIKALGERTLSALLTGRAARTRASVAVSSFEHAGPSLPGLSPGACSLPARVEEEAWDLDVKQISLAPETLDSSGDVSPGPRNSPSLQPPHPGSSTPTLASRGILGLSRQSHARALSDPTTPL

B1: LZTR1-FLAG (other, human, UniProt Q8N653 1-840, looked up)
chain: MAGPGSTGGQIGAAALAGGARSKVAPSVDFDHSCSDSVEYLTLNFGPFETVHRWRRLPPCDEFVGARRSKHTVVAYKDAIYVFGGDNGKTMLNDLLRFDVKDCSWCRAFTTGTPPAPRYHHSAVVYGSSMFVFGGYTGDIYSNSNLKNKNDLFEYKFATGQWTEWKIEGRLPVARSAHGATVYSDKLWIFAGYDGNARLNDMWTIGLQDRELTCWEEVAQSGEIPPSCCNFPVAVCRDKMFVFSGQSGAKITNNLFQFEFKDKTWTRIPTEHLLRGSPPPPQRRYGHTMVAFDRHLYVFGGAADNTLPNELHCYDVDFQTWEVVQPSSDSEVGGAEVPERACASEEVPTLTYEERVGFKKSRDVFGLDFGTTSAKQPTQPASELPSGRLFHAAAVISDAMYIFGGTVDNNIRSGEMYRFQFSCYPKCTLHEDYGRLWESRQFCDVEFVLGEKEECVQGHVAIVTARSRWLRRKITQARERLAQKLEQEAAPVPREAPGVAAGGARPPLLHVAIREAEARPFEVLMQFLYTDKIKYPRKGHVEDVLLIMDVYKLALSFQLCRLEQLCRQYIEASVDLQNVLVVCESAARLQLSQLKEHCLNFVVKESHFNQVIMMKEFERLSSPLIVEIVRRKQQPPPRTPLDQPVDIGTSLIQDMKAYLEGAGAEFCDITLLLDGHPRPAHKAILAARSSYFEAMFRSFMPEDGQVNISIGEMVPSRQAFESMLRYIYYGEVNMPPEDSLYLFAAPYYYGFYNNRLQAYCKQNLEMNVTVQNVLQILEAADKTQALDMKRHCLHIIVHQFTKVSKLPTLRSLSQQLLLDIIDSLASHISDKQCAELGADI
notes: Expressed in HEK 293T, HeLa or U87 cells; used as cell lysate; also called LZTR1 wild type-FLAG; LZTR1 WT; not shown: FLAG tag at the C-terminus
binds: all assays above
